The target of assay [1] is T1, IL-23R on human cells (IL-23R-expressing DB cells; human NK cells) (human, UniProt Q5VWK5 24-629).
T1 sequence (looked up): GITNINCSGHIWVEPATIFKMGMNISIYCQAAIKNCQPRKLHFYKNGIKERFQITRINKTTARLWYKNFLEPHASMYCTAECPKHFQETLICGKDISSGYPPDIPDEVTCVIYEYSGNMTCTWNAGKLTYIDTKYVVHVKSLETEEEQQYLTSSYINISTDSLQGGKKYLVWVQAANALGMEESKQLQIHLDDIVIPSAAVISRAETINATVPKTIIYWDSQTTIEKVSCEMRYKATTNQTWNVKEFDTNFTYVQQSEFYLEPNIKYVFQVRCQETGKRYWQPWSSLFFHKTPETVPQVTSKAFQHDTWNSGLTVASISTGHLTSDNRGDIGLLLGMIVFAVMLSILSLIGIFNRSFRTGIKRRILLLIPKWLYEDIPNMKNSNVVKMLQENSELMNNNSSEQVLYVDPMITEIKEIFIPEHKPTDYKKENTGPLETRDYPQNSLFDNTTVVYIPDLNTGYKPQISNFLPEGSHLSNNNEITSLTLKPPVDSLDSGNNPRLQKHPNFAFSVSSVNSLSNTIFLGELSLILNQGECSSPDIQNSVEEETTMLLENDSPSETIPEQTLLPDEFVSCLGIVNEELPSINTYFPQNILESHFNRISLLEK
The experiment in a line: cell-based or functional assay.

Assay [2] addresses Rat IL-23R_huFC (rat). The assay can be described thus: rat ELISA vs IL-23. A general note: In an ELISA, binding on a coated surface is turned into a signal by an enzyme label.
The target in assay [3] is T2, IL23R_huFC (human, UniProt Q5VWK5 24-353).
T2 sequence (looked up): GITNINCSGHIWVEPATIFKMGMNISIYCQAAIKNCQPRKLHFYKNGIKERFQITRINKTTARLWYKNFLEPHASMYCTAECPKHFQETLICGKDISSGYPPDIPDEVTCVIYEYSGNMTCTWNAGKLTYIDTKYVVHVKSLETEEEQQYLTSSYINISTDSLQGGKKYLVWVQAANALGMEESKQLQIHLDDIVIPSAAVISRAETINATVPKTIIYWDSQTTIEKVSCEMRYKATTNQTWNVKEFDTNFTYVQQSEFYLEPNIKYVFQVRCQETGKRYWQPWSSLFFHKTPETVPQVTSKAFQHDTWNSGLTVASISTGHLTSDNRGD
The experiment in a line: human ELISA vs IL-23.

The target of assay [4] is T2, IL23R_huFC. The assay can be described thus: human ELISA vs IL-23. This is another data set of the same source.

Like-named read-outs stand apart in the source and are kept apart here. *1 amine or outer side, *2 acyl side, *3 side chain or, on linkers, in order; H or OH if unused. Bridges are numbered along the chain shown (N, C = ends). Primed or numbered codes have the meaning given here. Side-chain parts run from the residue outwards. [ ]: non-standard residue; d: D form. Phe(4-OMe)(3) = O-methyl-L-tyrosine (4-methoxy-L-phenylalanine), COc1ccc(C[C@H](N[*:1])C(=O)[*:2])cc1; Phe(4-Oallyl) = 4-allyloxy-phenylalanine (O-allyl-tyrosine), C=CCOc1ccc(C[C@H](N[*:1])C(=O)[*:2])cc1; Phe(4-OMe) = 4-methoxy-L-phenylalanine (O-methyl-L-tyrosine), COc1ccc(C[C@H](N[*:1])C(=O)[*:2])cc1; Phe(Bzl) = read as Phe(4-OBzl), O-benzyl-L-tyrosine, O=C([C@H](Cc1ccc(OCc2ccccc2)cc1)N[*:1])[*:2]; Phe(4-OMe)″ = 4-methoxyphenylalanine, COc1ccc(C[C@H](N[*:1])C(=O)[*:2])cc1; Phe(4-OMe)(4) = O-methyl-L-tyrosine, COc1ccc(C[C@H](N[*:1])C(=O)[*:2])cc1; Phe(4-guanidino) = N=C(N)Nc1ccc(C[C@H](N)C(=O)O)cc1; Phe(4-CONH2) = NC(=O)c1ccc(C[C@H](N)C(=O)O)cc1; Phe(4-COOH) = N[C@@H](Cc1ccc(C(=O)O)cc1)C(=O)O; Phe(2,4-Me2) = Cc1ccc(C[C@H](N)C(=O)O)c(C)c1; Phe(4-Me) = Cc1ccc(C[C@H](N)C(=O)O)cc1; 2Nal = N[C@@H](Cc1ccc2ccccc2c1)C(=O)O; AEF = NCCOc1ccc(C[C@H](N)C(=O)O)cc1; αMeF = C[C@](N)(Cc1ccccc1)C(=O)O; 4Pal = N[C@@H](Cc1ccncc1)C(=O)O; αMeL = CC(C)C[C@](C)(N)C(=O)O; hLeu = CC(C)CC[C@H](N)C(=O)O; αMeK = C[C@](N)(CCCCN)C(=O)O; Orn = NCCC[C@H](N)C(=O)O; PEG2′ = not defined here; Abu = CC[C@H](N)C(=O)O; Dap = NC[C@H](N)C(=O)O

By IC50 is commonly meant the concentration needed to halve the response being measured. For the molecule Ac-[Abu]NTWQC[Phe(4-OMe)(4)][2Nal][αMeK]K(Ac)NG-NH2 (thioether 1-6) [Ac-Cyclo-[[Abu]-NTWQC]-[Phe(4-OMe)]-[2-Nal][α-MeLys]-[Lys(Ac)]-NG-NH2], the “pStat3 HTRF IC50” value in assay [1] is less than 10 nM. Besides, the IC50 in assay [2] was 25 to 100 nM; in assay [3], 10 to 25 nM. For Ac-[Abu]QTWQC[Phe(4-OMe)][2Nal][αMeK]ENG-NH2 (thioether 1-6) [Ac-Cyclo-[[Abu]-QTWQC]-[Phe(4-OMe)]-[2-Nal]-[α-MeLys]-ENG-NH2] the same measures were less than 10 nM, 25 to 100 nM and 10 to 25 nM.

In turn, Ac-[Abu]QT[αMeF]QC[AEF][2Nal][αMeK]ENG-NH2 (thioether 1-6) [Ac-Cyclo-[[Abu]-QT-[α-MePhe]-QC]-[Phe[4-(2-aminoethoxy)]]-[2-Nal]-[α-MeLys]-ENG-NH2] returned an IC50 in assay [4] of 100 to 1000 nM. For the molecule Ac-[Abu]QT[Phe(2,4-Me2)]QC[AEF][2Nal][αMeK]ENG-NH2 (thioether 1-6) [Ac-Cyclo-[[Abu]-QT-[Phe(2,4-Me2)]-QC]-[Phe[4-(2-aminoethoxy)]]-[2-Nal]-[α-MeLys]-ENG-NH2], the half-maximal inhibitory concentration (IC50) in assay [4] lay in the range of 100 to 1000 nM. The molecule Ac-[Abu]QTWQC[4Pal][2Nal][αMeK]K(Ac)NG-NH2 (thioether 1-6) [Ac-Cyclo-[[Abu]-QTWQC]-[4-Pyridylalanine]-[2-Nal][α-MeLys]-[Lys(Ac)]-NG-NH2] registered an IC50 in assay [4] of 100 to 1000 nM. For the molecule Ac-[Abu]QTWQC[AEF][2Nal][αMeK]RNG-NH2 (thioether 1-6) [Ac-Cyclo-[[Abu]-QTWQC]-[Phe[4-(2-aminoethoxy)]]-[2-Nal]-[α-MeLys]-RNG-NH2], the “pStat3 HTRF IC50” value in assay [1] was less than 10 nM. The same molecule gave an IC50 in assay [3] of 10 to 25 nM. For Ac-[Abu]STWQC[AEF][2Nal][αMeK]KNGGE-NH2 (thioether 1-6) [Ac-Cyclo-[[Abu]-STWQC]-[Phe[4-(2-aminoethoxy)]]-[2-Nal]-[α-MeLys]-KNGGE-NH2], the concentration for half-maximal inhibition (IC50) in assay [4] was in the range of 100 to 1000 nM. In the case of Ac-[Abu]QTWQCYW[αMeL]ENG-NH2 (thioether 1-6) [Ac-Cyclo-[[Abu]-QTWQC]-YW-[α-MeLeu]-ENG-NH2], in assay [1], the “pStat3 HTRF IC50” value is less than 10 nM. Further, the IC50 in assay [2] fell in the range of 25 to 100 nM; in assay [3], 10 to 25 nM.

Ac-[Abu]QTWQC[Phe(4-OMe)(3)][Phe(Bzl)][αMeK]ENG-NH2 (thioether 1-6) [Ac-Cyclo-[[Abu]-QTWQC]-[Phe(4-OMe)]-[Phe(Bzl)]-[α-MeLys]-ENG-NH2] showed an IC50 in assay [4] of 100 to 1000 nM.

Regarding Ac-[Abu]QTWQC[AEF][Phe(4-COOH)][αMeK]K(Ac)NG-NH2 (thioether 1-6) [Ac-Cyclo-[[Abu]-QTWQC]-[Phe[4-(2-aminoethoxy)]]-[Phe(4-CO2H)]-[α-MeLys]-[Lys(Ac)]-NG-NH2], the IC50 in assay [4] lay within 100 to 1000 nM. With Ac-[Abu]QTWQC[AEF]W[hLeu]ENG-NH2 (thioether 1-6) [Ac-Cyclo-[[Abu]-QTWQC]-[Phe[4-(2-aminoethoxy)]]-W-[hLeu]-ENG-NH2], the “pStat3 HTRF IC50” value in assay [1] was less than 10 nM. Further, the IC50 in assay [3] lay in the range of 10 to 25 nM.

In assay [4], Ac-[Abu]QTWQC[AEF][Phe(4-CONH2)][αMeK]K(Ac)NG-NH2 (thioether 1-6) [Ac-Cyclo-[[Abu]-QTWQC]-[Phe[4-(2-aminoethoxy)]]-[Phe(4-CONH2)]-[α-MeLys]-[Lys(Ac)]-NG-NH2] came in with an IC50 of 100 to 1000 nM. The same measure, in the same setting: the same measure for Ac-[Abu]QTWQC[Phe(4-OMe)″][Phe(4-Me)][αMeK]ENG-NH2 (thioether 1-6) [Ac-Cyclo-[[Abu]-QTWQC]-[Phe(4-OMe)]-Phe(4-Me)-[α-MeLys]-ENG-NH2]: 100 to 1000 nM. The same measure, in the same setting: the same measure for Ac-[Abu]QTWQC[Phe(4-OMe)(3)][Phe(4-Oallyl)][αMeK]ENG-NH2 (thioether 1-6) [Ac-Cyclo-[[Abu]-QTWQC]-[Phe(4-OMe)]-[Phe(4-Oallyl)]-[α-MeLys]-ENG-NH2]: 100 to 1000 nM; for Ac-[Abu]QTWQC[Phe(4-OMe)(3)][Phe(4-guanidino)][αMeK]ENG-NH2 (thioether 1-6) [Ac-Cyclo-[[Abu]-QTWQC]-[Phe(4-OMe)]-[Phe(4-guanidino)]-[α-MeLys]-ENG-NH2]: 100 to 1000 nM. Turning to XQTWQCFWXENG (as bracketed in name; thioether cyclo) [Ac-Cyclo-[[Abu]-QTWQC]-[Phe[4-(2-aminoethoxy)]]-W-[α-Me-Orn]-ENG-NH2], the “pStat3 HTRF IC50” value in assay [1] was less than 10 nM. Moreover, the IC50 in assay [3] was in the range of 10 to 25 nM. In assay [3], Ac-[Abu]QTWQC[AEF][2Nal][αMeK][Dap]([PEG2′-Ac])NG-NH2 (thioether 1-6) [Ac-Cyclo-[[Abu]-QTWQC]-[Phe[4-(2-aminoethoxy)]]-[2-Nal][α-MeLys]-[Dap(PEG2-Ac)]NG-NH2] showed an IC50 of 10 to 25 nM. Ac-[Abu]QTWQC[AEF]W[Orn][Dap](Ac)NG-NH2 (thioether 1-6) [Ac-Cyclo-[[Abu]-QTWQC]-[Phe[4-(2-aminoethoxy)]]-W-[Orn]-[Dap(Ac)]-NG-NH2] displayed an IC50 in assay [4] of 100 to 1000 nM.

(Values after patent US20190300590A1 (PROTAGONIST THERAPEUTICS, published 2019).)
